# Measurements from PMC5849677.
# Legend:
# [1] = target: hC3d,g (s)-Fc (Cys to Ser variant of hC3dg-Fc) (human) (UniProt P01024); test: SPR; Biacore; hC3d or C3d(g)-Fc fusions immobilised by amine coupling (94.3-96.2 RU); Fc-fusion analytes 0.195-50 nM in HBS-EP+, physiological salt, 360 s injection; steady state affinity model; apparent KD
# [2] = target: native hC3d purified from human serum (human); test: as above
substance,measurement,setting,value
hCR2 (SCR1-4)-Fc (from UniProt P20023 21-273) (Fc fusion),Kd,[1],2.6 nM
same,Kd,[2],10.6 nM
